Laboratory results as given in PMC11749594, “Tracing TMEM106B fibril deposition in aging and Parkinson’s disease with dementia brains” (Life Medicine, 2024).

Target: the molecule itself
Experiment: cryo-EM structure; fibrils extracted from the frontal cortex of case 1 of PDD, pretreated with pronase for 30 min; helical reconstruction at 3.5 Å

B1: TMEM106B fibril (Type 1) extracted from the frontal cortex of case 1 of PDD (domain or fragment, human (endogenous in brain tissue), UniProt Q9NUM4 120-254, looked up)
chain: SIDVKYIGVKSAYVSYDVQKRTIYLNITNTLNITNNNYYSVEVENITAQVQFSKTVIGKARLNNITIIGPLDMKQIDYTVPTVIAEEMSYMYDFCTLISIKVHNIVLMMQVTVTTTYFGHSEQISQERYQYVDCG
modifications: four potentially glycosylated Asn residues
notes: Transmembrane protein 106B (TMEM106B), human, fibril core of residues 120-254 (luminal domain); Amyloid fibril with many stacked copies of the chain; the atomic model was built as three layers; Residues 120-254 are the ordered core seen by cryo-EM; also called Transmembrane protein 106B fibril; brain-extracted TMEM106B fibril; source: extracted from postmortem human brain (frontal lobe, case 1 of …)
B1: binds.
